Each block holds one molecule with its values, some of them ahead of it.
Experiments:
[1] = molecular target: trypsin-activated PDE6 isolated from bovine rod outer segment membranes (bovine) (UniProt P11541); experiment: inhibition of enzyme activity
[2] = molecular target: trypsin-activated PDE6 from mouse retina extracts (mouse (endogenous in retina)) (UniProt P27664); experiment: inhibition of enzyme activity
[3] = molecular target: the molecule itself; experiment: mass photometry

Ki [1]: 0.0755 nM
Molecule: full-length Pγc (isolated protein used in PDE6 activity assays) (from UniProt Q13956 1-83) (natural protein)

Ki [1]: 0.0294 nM
Molecule: full-length Pγr (isolated protein used in PDE6 activity assays) (from UniProt P18545 1-87) (natural protein)

Ki [2]: 2500 nM
Molecule: synthetic peptide of the 25 C-terminal residues of Pγr, Pγr-63-87 (from UniProt P18545 63-87)

Ki [2]: 8200 nM
Molecule: synthetic peptide of the C-terminus of Pγc, Pγc-59-83 (from UniProt Q13956 59-83)

B1: human cone cGMP-phosphodiesterase PDE6C catalytic subunit (residues 2-830), catalytic homodimer of holoPDE6C (enzyme, UniProt P51160 2-830, looked up)
chain: GEINQVAVEKYLEENPQFAKEYFDRKLRVEVLGEIFKNSQVPVQSSMSFSELTQVEESALCLELLWTVQEEGGTPEQGVHRALQRLAHLLQADRCSMFLCRSRNGIPEVASRLLDVTPTSKFEDNLVGPDKEVVFPLDIGIVGWAAHTKKTHNVPDVKKNSHFSDFMDKQTGYVTKNLLATPIVVGKEVLAVIMAVNKVNASEFSKQDEEVFSKYLNFVSIILRLHHTSYMYNIESRRSQILMWSANKVFEELTDVERQFHKALYTVRSYLNCERYSIGLLDMTKEKEFYDEWPIKLGEVEPYKGPKTPDGREVNFYKIIDYILHGKEEIKVIPTPPADHWTLISGLPTYVAENGFICNMMNAPADEYFTFQKGPVDETGWVIKNVLSLPIVNKKEDIVGVATFYNRKDGKPFDEHDEYITETLTQFLGWSLLNTDTYDKMNKLENRKDIAQEMLMNQTKATPEEIKSILKFQEKLNVDVIDDCEEKQLVAILKEDLPDPRSAELYEFRFSDFPLTEHGLIKCGIRLFFEINVVEKFKVPVEVLTRWMYTVRKGYRAVTYHNWRHGFNVGQTMFTLLMTGRLKKYYTDLEAFAMLAAAFCHDIDHRGTNNLYQMKSTSPLARLHGSSILERHHLEYSKTLLQDESLNIFQNLNKRQFETVIHLFEVAIIATDLALYFKKRTMFQKIVDACEQMQTEEEAIKYVTVDPTKKEIIMAMMMTACDLSAITKPWEVQSQVALMVANEFWEQGDLERTVLQQQPIPMMDRNKRDELPKLQVGFIDFVCTFVYKEFSRFHKEITPMLSGLQNNRVEWKSLADEYDAKMKVIEEEA
stoichiometry N [3]: 2

Source: article PMC11725853 (Proceedings of the National Academy of Sciences of the …, 2024)
